The EC50 is the concentration giving half of the maximal effect.

Assay [1] has as its target T1, Mutant Human HTT Exon 1 48Q (GST) (human).
T1 construct: recombinant His- and GST-tagged fusion; also called HTT Exon 1 Q48; 48Q HTT Exon-1
Nature of the assay: HTT sandwich ELISA, biological repeat 1. For orientation: An ELISA detects its analyte on a solid surface through an enzyme-linked reagent.

In assay [2] the target is T1, Mutant Human HTT Exon 1 48Q (GST). Nature of the assay: HTT sandwich ELISA; EC50 on HTT Exon 1 25Q over EC50 on HTT Exon 1 48Q.
Assay [3] addresses T2, WT Human HTT Exon 1 25Q (GST) (human).
T2 construct: recombinant His- and GST-tagged fusion; also called Wild type Huntingtin (HTT) exon 1
Nature of the assay: HTT sandwich ELISA, average of repeats.

Assay [4] has as its target T2, WT Human HTT Exon 1 25Q (GST). The assay can be described thus: HTT sandwich ELISA, biological repeat 2.
Assay [5] has as its target T3, CACNA1A (human, UniProt O00555 1-2506).
T3 construct: whole, on cells; also called Another poly Q protein
The assay can be described thus: Retrogenix cell microarray, HEK293 cells.

Assay [6] deals with T1, Mutant Human HTT Exon 1 48Q (GST). The assay can be described thus: HTT sandwich ELISA, biological repeat 2.
For assay [7], the target named is T4, Murine HTT antigen (murine).
T4 construct: antigen of the murine HTT direct ELISA; also called murine HTT protein
T4 chain: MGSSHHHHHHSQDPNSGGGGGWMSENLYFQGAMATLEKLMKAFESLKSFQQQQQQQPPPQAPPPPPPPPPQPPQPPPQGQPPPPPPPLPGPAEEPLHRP
The assay can be described thus: direct ELISA on coated murine HTT antigen.

The target in assay [8] is T2, WT Human HTT Exon 1 25Q (GST). Nature of the assay: HTT sandwich ELISA, biological repeat 3.
Assay [9] deals with T1, Mutant Human HTT Exon 1 48Q (GST). The assay can be described thus: HTT sandwich ELISA, biological repeat 3.
Assay [10] shares this target. Nature of the assay: HTT sandwich ELISA, average of repeats.
Assay [11] deals with T2, WT Human HTT Exon 1 25Q (GST). Nature of the assay: HTT sandwich ELISA, biological repeat 1.
Assay [12] has as its target T5, human lysozyme (human, UniProt P61626 19-148).
T5 sequence (looked up): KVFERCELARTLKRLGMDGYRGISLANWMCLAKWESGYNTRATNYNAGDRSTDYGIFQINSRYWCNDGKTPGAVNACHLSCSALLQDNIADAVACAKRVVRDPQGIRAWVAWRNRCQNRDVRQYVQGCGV
The assay can be described thus: direct ELISA.

The target in assay [13] is T2, WT Human HTT Exon 1 25Q (GST). The assay can be described thus: HTT sandwich ELISA, average (one repeat assessed).

T2 sequence (chain, as listed by the source limits assumed, change not shown): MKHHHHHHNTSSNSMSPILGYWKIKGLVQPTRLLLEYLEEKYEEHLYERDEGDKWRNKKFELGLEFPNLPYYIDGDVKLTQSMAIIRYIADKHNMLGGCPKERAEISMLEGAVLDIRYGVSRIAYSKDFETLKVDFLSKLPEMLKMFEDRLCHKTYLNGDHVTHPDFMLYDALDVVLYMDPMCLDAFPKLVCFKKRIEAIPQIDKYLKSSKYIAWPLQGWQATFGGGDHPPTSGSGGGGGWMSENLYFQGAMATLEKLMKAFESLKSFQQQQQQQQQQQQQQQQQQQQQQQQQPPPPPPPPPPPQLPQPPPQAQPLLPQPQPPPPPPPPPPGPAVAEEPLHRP
T1 sequence (chain, as listed by the source mutant limits assumed): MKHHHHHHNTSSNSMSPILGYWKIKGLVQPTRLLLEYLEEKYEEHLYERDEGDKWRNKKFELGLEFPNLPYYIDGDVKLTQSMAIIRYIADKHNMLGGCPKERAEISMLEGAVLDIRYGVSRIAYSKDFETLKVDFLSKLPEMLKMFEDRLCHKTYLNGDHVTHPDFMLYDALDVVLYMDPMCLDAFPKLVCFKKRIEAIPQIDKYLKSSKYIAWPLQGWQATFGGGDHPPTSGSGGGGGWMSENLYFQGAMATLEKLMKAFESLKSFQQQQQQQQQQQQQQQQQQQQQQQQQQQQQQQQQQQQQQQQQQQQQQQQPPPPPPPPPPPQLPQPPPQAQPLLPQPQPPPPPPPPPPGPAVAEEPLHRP
T3 sequence (O00555 whole entry): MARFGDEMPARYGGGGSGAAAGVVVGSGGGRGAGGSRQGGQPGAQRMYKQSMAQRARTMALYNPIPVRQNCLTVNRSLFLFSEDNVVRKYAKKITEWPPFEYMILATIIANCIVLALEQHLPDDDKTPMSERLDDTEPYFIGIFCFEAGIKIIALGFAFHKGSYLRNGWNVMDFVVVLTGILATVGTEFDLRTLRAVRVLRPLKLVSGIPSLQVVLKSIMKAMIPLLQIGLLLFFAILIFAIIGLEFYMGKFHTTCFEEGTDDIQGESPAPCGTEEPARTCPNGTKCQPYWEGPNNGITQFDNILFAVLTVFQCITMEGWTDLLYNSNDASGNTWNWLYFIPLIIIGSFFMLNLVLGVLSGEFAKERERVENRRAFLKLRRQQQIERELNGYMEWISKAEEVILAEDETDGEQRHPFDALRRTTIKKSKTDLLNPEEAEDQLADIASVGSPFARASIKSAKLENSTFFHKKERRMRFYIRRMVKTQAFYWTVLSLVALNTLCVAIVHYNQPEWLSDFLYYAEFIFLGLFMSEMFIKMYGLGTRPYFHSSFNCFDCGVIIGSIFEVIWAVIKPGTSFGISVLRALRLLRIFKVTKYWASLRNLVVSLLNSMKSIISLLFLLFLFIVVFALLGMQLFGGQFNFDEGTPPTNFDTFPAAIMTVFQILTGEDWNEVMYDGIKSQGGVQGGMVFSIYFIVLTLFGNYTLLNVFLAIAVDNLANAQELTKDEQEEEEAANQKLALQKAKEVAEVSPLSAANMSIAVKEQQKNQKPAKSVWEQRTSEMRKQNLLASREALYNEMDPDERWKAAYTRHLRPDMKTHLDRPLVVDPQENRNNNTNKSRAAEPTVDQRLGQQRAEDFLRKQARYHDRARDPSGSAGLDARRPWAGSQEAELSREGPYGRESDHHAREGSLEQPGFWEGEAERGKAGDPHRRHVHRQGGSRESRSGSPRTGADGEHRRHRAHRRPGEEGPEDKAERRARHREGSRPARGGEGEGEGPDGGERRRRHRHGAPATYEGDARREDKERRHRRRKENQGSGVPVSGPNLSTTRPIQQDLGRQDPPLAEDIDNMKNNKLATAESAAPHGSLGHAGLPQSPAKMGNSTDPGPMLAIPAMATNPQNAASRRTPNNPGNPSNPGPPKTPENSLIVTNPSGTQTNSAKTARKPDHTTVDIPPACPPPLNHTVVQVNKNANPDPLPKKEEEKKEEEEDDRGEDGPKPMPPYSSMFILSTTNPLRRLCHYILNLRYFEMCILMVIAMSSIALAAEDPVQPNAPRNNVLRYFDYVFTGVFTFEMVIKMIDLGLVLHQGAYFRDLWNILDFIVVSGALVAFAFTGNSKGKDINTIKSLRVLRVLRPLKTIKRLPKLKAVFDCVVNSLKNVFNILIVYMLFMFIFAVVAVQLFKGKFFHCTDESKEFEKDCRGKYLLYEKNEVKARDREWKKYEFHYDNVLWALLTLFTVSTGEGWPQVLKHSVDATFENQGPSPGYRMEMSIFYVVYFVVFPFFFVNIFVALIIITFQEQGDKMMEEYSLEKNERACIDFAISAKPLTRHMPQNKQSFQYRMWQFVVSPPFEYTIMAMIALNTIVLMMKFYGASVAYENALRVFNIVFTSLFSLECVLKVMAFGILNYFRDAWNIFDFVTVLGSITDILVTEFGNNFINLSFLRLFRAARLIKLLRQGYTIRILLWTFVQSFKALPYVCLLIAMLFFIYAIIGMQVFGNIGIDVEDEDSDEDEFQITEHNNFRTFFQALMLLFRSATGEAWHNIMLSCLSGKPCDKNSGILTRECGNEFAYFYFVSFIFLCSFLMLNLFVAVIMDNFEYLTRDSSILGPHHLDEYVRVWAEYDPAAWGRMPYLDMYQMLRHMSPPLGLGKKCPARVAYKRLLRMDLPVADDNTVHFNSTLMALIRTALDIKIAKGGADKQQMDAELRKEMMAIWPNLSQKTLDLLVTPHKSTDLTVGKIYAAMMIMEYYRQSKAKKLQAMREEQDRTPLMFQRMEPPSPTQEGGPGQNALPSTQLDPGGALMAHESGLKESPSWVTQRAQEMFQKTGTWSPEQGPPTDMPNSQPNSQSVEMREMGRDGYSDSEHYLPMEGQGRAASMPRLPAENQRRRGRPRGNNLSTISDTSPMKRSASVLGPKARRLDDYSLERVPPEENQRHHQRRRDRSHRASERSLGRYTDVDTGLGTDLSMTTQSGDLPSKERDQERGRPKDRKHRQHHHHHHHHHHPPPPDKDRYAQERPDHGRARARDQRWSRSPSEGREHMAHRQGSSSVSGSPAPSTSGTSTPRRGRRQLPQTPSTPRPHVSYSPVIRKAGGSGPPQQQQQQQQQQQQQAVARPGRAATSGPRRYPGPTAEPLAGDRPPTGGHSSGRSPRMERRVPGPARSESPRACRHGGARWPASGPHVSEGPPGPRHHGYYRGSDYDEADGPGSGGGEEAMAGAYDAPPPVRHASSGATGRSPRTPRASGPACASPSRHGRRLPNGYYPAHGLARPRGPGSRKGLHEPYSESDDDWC

B1: ATL_0005895 (antibody, V domains shown)
VH: EVQLVESGGGLVKPGGSLRLSCAASGFTFNKAWMSWVRQAPGKGLEWVGRIKSGIDAGTTDYAAPVKGRFTISRDDSKNTLYLQMNSLKTEDTAVYYCIPPPYYYYYGLDVWGQGTTVTVSS
VL: QSALTQPRSVSGSPGQSVTISCTGTSSDVGSYNLVSWYQQHPGKAPKLMIYEVNKRPSGVPDRFSGSKSGATASLTISGLQAEDEADYYCGSYAGTANVFGTGTKVTVL
notes: human IgG1; also called ATL_5895; ATL5895
As for B1, the half-maximal effective concentration (EC50) in assay [1] was 0.731 nM; in assay [3], 3.71 nM; in assay [4] it was 3.91 nM; in assay [6] it was 3.83 nM; in assay [8] it was 4.39 nM; in [9], 3.2 nM. Besides, the EC50 in assay [10] was found to be 2.08 nM; in assay [11], 2.97 nM. Further, the “Ratio of EC50 for 25Q:48Q HTT Exon 1” value in assay [2] came out at 1.79. Moreover, the values for the binding result in assay [5], in [7] and in assay [12] were “no binding (tested: 2 µg/mL antibody)”, “binds” and “no binding (tested: less than 1 µM)”, respectively.

B2: ATL_0005567 (antibody, V domains shown)
VH: EVQLVESGGGLVKPGGSLRLSCAASGFTFNKAWMNWVRQAPGKGLEWVGRIKSGIDGGTTDYAAPVQGRFTISRDDSKNTVYLQMNSLNTEDTAVYYCIPPPYYYYYGLDVWGQGTTVTVSS
VL: QSALTQPASVSGSPGQSITISCTGTSSDIGSYNLVSWYQQHPGNAPKPLIYEGSKRPSGVSARFSGSKSGNTASLTISGLQPEDEADYYCSSYAGFSTLVFGGGTKVTVL
notes: human IgG1; also called ATL_5567; ATL5567
Consider B2, for which the EC50 in assay [1] was found to be 8.7 nM; in assay [3], 7.57 nM; in [4] it was 9.63 nM; in assay [6], 6.55 nM; in [8], 5.95 nM; in [9], 4.59 nM. Further, the EC50 in [10] stood at 6.39 nM. Besides, the “Ratio of EC50 for 25Q:48Q HTT Exon 1” value in assay [2] came to 1.18. Moreover, the binding result in assay [5] was “no binding (tested: 5 µg/mL antibody)”.

B3: ATL_0005901 (antibody, V domains shown)
VH: EVQLVESGGGLVKPGGSLRLSCAASGFTFNKAWMSWVRQAPGKGLEWVGRIKSGIDAGTTDYAAPVKGRFTISRDDSKATLYLQMNSLKTEDTAVYYCIPPPYYYYYGLDVWGQGTTVTVSS
VL: QSALTQPASVSGSPGQSITISCTGTSSDVGGYKLVSWYQQHPGRAPKLMIYEVSKRPSGVSSRFSGSKSGSTASLTISGLQAEDEADYYCSSYAGSSVVFGGGTKLTVL
notes: human IgG1; also called ATL_5901; ATL5901
Turning to B3, the EC50 was 1.25 nM in assay [1]; 4.92 nM in assay [3]; 4.52 nM in assay [4]; 4.73 nM in [8]; 4.59 nM in assay [9]; 2.4 nM in [10]. In assay [11], the EC50 was determined as 5.59 nM. The “Ratio of EC50 for 25Q:48Q HTT Exon 1” value in assay [2] was determined as 2.05.

B4: ATL_0005059/NI-302.8F1 (antibody, V domains shown)
VH: EVQLVESGGGLVKPGGSLTISCAASGFTFSNAWMNWVRQAPGKGLEWVGHIRTQAEGGTSDYAAPVKGRFTISRDDSKNTLYLQMNSLKTEDTAVYYCIPPPYYYYYGLDVWGQGTTVTVSS
VL: QSALTQPASVSGSPGQSITISCTGASSDVGTYDLVSWYQQHPGKAPKLIIYEVNKRPSGVSYRFSASKSANTASLTISGLQAEDEAEYYCCSYAGYSTVFGGGTKLTVL
notes: also called ATL_5059; CA_0000274
B4: the EC50 worked out at 18.1 nM in assay [1]; 19.3 nM in assay [4]; 16.2 nM in assay [6]; 19.3 nM in assay [13]; 17.5 nM in assay [9]; 17.3 nM in assay [10]. The “Ratio of EC50 for 25Q:48Q HTT Exon 1” value in assay [2] worked out at 1.12.

For the origin of these results see patent US20260209320A1 (ALCHEMAB THERAPEUTICS, published 2026).
